In US12577311:

Legend:
CD70-APC = CD70-APC (UniProt P32970); experiment: FACS binding
[1] = biological target: CD70 on CD70+ skrc-59 ccRCC cells (UniProt P32970); experiment: FACS binding; conditions: Fc fusion
CD70 on CD70+ skrc-59 ccRCC cells, sequence (P32970 whole entry, the tested form may be a part): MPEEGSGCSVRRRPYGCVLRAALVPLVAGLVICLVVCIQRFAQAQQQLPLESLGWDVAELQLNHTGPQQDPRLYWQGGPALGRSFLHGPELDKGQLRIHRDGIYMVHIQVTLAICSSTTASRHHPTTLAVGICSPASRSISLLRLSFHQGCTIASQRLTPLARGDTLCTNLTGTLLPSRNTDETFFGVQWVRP

CD70-APC, sequence (P32970 39-193): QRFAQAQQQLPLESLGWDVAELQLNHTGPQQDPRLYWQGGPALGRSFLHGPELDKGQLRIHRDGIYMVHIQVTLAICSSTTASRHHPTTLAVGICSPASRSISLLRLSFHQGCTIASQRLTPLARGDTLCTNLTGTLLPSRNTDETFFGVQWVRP

Row | Substance | EC50 (CD70-APC) [µg/mL] | EC50 [1] [µg/mL]
1 | CD27 | 0.917 | –
2 | anti-CD70 minibody #7 (from UniProt P01721 20-117) | – | 0.114
